Experimental data: the supplement of paper PMC9170038

Tested on: MS2 coat protein
Assay: apparent KD of MS2 coat protein; designed switch direction (-1 OFF switch, 1 ON switch): -1; higher = weaker reporter binding
How it was run: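 The apparent KD reported per design is the median over clusters of curve fits to normalised cluster fluorescence. The RNA switches were transcribed on Illumina chips by stalled E. coli RNA polymerase. SNAP-549-labelled MS2 coat protein was titrated from 0.7 or 1.5 nM, doubling up to 3 µM, in Tris-HCl pH 7.5 buffer containing KCl, MgCl2, BSA, DTT, tRNA and Tween-20, with no input, 200 uM small-molecule ligand, or an oligonucleotide input.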

[1] = Eterna round: R95, input ligand: FMN 200 uM
[2] = Eterna round: R95, input ligand: microRNA oligo, concentration not stated
[3] = Eterna round: R95, input ligand: none
[4] = input ligand: microRNA oligo, concentration not stated

Sequence | apparent KD of MS2 coat protein [1] [µM] | apparent KD of MS2 coat protein [2] [µM] | apparent KD of MS2 coat protein [3] [µM] | apparent KD of MS2 coat protein (input ligand: FMN 200 uM) [µM] | apparent KD of MS2 coat protein [4] [µM] | apparent KD of MS2 coat protein (input ligand: none) [µM]
AAAAGCAAGCAAAGAUUCUACAUGAGGAUCACCCAUGUGCUCGUCUUAUAAAGUACUAUCACGAAAGUGAUAGUACA [Sensor 3, v1 - 42] (puzzle: Sensor v3, turn-off variant 1) | 0.026 | 0.142 | 0.0197 | – | – | –
UCAUGUUUAGAGGAUAUGAUUACUUUUGAGUAAUCAGAAGGCUAGACAUGAGGAUCACCCAUGUCAUAACAUGA [Exclusion 6 - B - 15:d] (Eterna round: R96, puzzle: Exclusion 6) | – | – | – | 0.341 | 0.0759 | 0.242
UUGAAGAUAGGAUAUACGAGGAGAGGAGAGAGAAGGUGAGGACAUGAGGAUCACCCAUGUAGAAGGAUCAGGAG [JR_Exclu2_Sub066] (puzzle: Exclusion 2) | 0.0661 | 0.0869 | 0.0849 | – | – | –
GGUGGACAUGAGGAUCACCCAUGUGAGGAUAUCGGCUAUCUUAUCGCUGUCGGUUGCUCGAGAAGGCACAUUGU [Exclusion 1 V96] (puzzle: Exclusion 1) | – | 0.0712 | – | – | – | –
AAGAAACAUGAGGAUCACCCAUGUGAGGAUAUGAAAAAGAAAAGAAAAGAAAGAAGAAUCAGAAGGCACAAAGG [Nebkaure Khety II] (Eterna round: R96, puzzle: Exclusion 1) | – | – | – | – | 0.0243 | –
GUCAGCUCGUGAGGAUAUGCACAUGAGGAUCACCCAUGUAAGAUCAAGCUGCUUCGGCAGCAAGUGCAGAAGGUACGAGCUGAC [ENG2/9-C1] (Eterna round: R96, puzzle: Exclusion NG 2) | – | – | – | 0.2 | 0.207 | 0.297
UUAAUUAAUUAAGCGCAAGAUCACAUGAGGAUCACCCAUGUAUAGGAUAUCAGCUCGUUUAGAGCUGAGAAGGAUACAUAGCGC [ExNG3/2-A2] (Eterna round: R96, puzzle: Exclusion NG 3) | – | – | – | 0.738 | 0.155 | 0.172
AAGUACCGUCACGAUAGUGAUGGUACAACAAGCAAAUACACAUGAGGAUCACCCAUGUCCUCUUUUGCUCGUCUUGU [Sensor 3 - 0] (puzzle: Sensor v3, turn-off variant 2) | 0.674 | 0.236 | 0.767 | – | – | –
CGUGACUCAGGAUAUCUAUAGUAUCACAUGAGGAUCACCCAUGUCCAGCGAAAGCUGGAGGGAGAAGGGAGUCACG [Fiskers Ex 5 - 42] (puzzle: Exclusion 5) | 0.0713 | 0.13 | 0.229 | – | – | –
CAGAAACAUGAGGAUCACCCAUGUGAGGAUAUGCGUACGUUGUCCGUAGGCGACGUGCGCAGAAGGCGCAAAGG [Mat - Mod of JL D85] (puzzle: Exclusion 1) | 0.115 | 0.0593 | 0.116 | – | – | –
GUUUCGAGACGGAGAUCCGACAUGAGGAUCACCCAUGUCUCCCAAGCUUUUUGCUCGUCUUAUACUCCUCUGUUCUC [Elimod 47 - Jieux - Sensor, turn-off variant 1] (Eterna round: R97, puzzle: Sensor, turn-off variant 1) | – | – | – | 0.018 | – | 0.0194
AAAACACAUGAGGAUCACCCAUGUGAGGAUAUGUUCAUGUUCAGCAAACUGAACAUGAACAGAAGGCACAUAAA [JR_Exclusion1_Sub016] (puzzle: Exclusion 1) | 0.0447 | 0.0365 | 0.0404 | – | – | –
UUCAUGUGAGGAUAUAGUACUCCUUCUAUUAUUUUUGAGUAUUAGAAGGCACAUGAGGAUCACCCAUGUAGUAC [Ex4 - 3 - 39] (puzzle: Exclusion 4) | – | 0.0246 | – | – | – | –
UUUAUUUUGCAAGGAUAUGUUUAAUUUUAGUUUCCUUACACAUGAGGAUCACCCAUGUUAUACUUACAGAAGGUGCGUAAUUUU [Excl-NG2-LRO01] (Eterna round: R96, puzzle: Exclusion NG 2) | – | – | – | – | 0.101 | –
AAGAUGUGAGGAUAUCACGAGAACGUCACACGGACGCUCUCUGAGAAGGCACAUGAGGAUCACCCAUGUCCAAC [EX4 A.21] (Eterna round: R97, puzzle: Exclusion 4) | – | – | – | 0.207 | – | 0.0472
AUUCGGAUAGGAUAUACUUGAGGAUCACCCAAGUGUUUGAACUAUCGUGAUCUGAAGAGUAGAAGGAUCAUCAU [Atquedzaed] (Eterna round: R97, puzzle: Exclusion 3) | – | – | – | 0.176 | – | 0.0907
AGCUAGUCAGGAUAUUCUAAAUAUUACAUGAGGAUCACCCAUGUGAAUGGACAAGGGUGUGAAGAAGGGACUAGCG [Omei Ex5 A12] (Eterna round: R97, puzzle: Exclusion 5) | – | – | – | 0.262 | – | 0.959

Sequence | apparent KD of MS2 coat protein [1] [µM] | apparent KD of MS2 coat protein [2] [µM] | apparent KD of MS2 coat protein [3] [µM] | apparent KD of MS2 coat protein (input ligand: FMN 200 uM) [µM] | apparent KD of MS2 coat protein [4] [µM] | apparent KD of MS2 coat protein (input ligand: none) [µM]
GUCACAUGGACAUAGGAUCACAUGAGGAUCACCCAUGUGACUAACAAGCUUUUUGCUCGUCUUAUGUCUAUGUGAAG [Stov1/16-A3] (Eterna round: R97, puzzle: Sensor, turn-off variant 1) | – | – | – | 0.0144 | – | 0.0124
AAAUGCAAGUAAAGAUCUUACAUGAGGAUCACCCAUGUGCUCGUCUUAUAAAGUACUAUCACGAAAGUGAUAGUACA [Sensor 3, v1 - 27] (puzzle: Sensor v3, turn-off variant 1) | 0.0185 | 0.0769 | 0.0193 | – | – | –
GACUAAACACGAGGAUAUGCCUGGGAAGAACAGGCAGAAGGCGUGACAUGAGGAUCACCCAUGUAGCCGGGCUAUUCUCGUACG [Tirearerar] (Eterna round: R96, puzzle: Exclusion NG 1) | – | – | – | 0.0308 | 0.0247 | 0.0303
AACAAGUGAGGAUAUGAACCACUUGCCCACGCAUGCGUGGAUCAGAAGGCACUUGAGGAUCACCCAAGUCCUAA [Texeusso] (Eterna round: R97, puzzle: Exclusion 4) | – | – | – | 0.0497 | – | 0.0213
CCAAGCUAAAUCAUUAACAACAUGAGGAUCACCCAUGUGUAAGCAAUUAUGUUUGGGCUCUUUAGUGCUCGUCUUAU [JR_STOV1_Sub043] (Eterna round: R97, puzzle: Sensor, turn-off variant 1) | – | – | – | 0.0157 | – | 0.0163
GACUAGGCAGGAUAUACAUGAGGAUCACCCAUGUGUCUGCGUUGGGCACGUGAACACCGUAGAAGGGCCUUGAC [ChP 13.04.2015 #14] (puzzle: Exclusion 3) | – | 0.0144 | – | – | – | –
GUGAUCUAUCAUGGAAUAAACAUGAGGAUCACCCAUGUAGACAAGUUUUUUGCUCGUCUUAUAAUAAGAUAGAUCAC [Antenna 14 - Jieux - Sensor, turn-off variant 1] (Eterna round: R97, puzzle: Sensor, turn-off variant 1) | – | – | – | 0.0155 | – | 0.0142
GAAUAGAGAGGAUAUGCAAUGUAGGUAGUACGAUAUAUCUGACAUGAGGAUCACCCAUGUAGAAGGCUCAGAUC [EX2 #7] (Eterna round: R97, puzzle: Exclusion 2) | – | – | – | 0.0404 | – | 0.0379
UCAUGUUUAGAGGAUAUGAUUACUUUUGAGUAAUCAGAAGGCUAGACAUGAGGAUCACCCAUGUCAUAACAUGA [Exclusion 6 - B - 15:d] (puzzle: Exclusion 6) | – | 0.0715 | – | – | – | –
AUGCCCUGAGGAUAUCUCAUCCCGCACAUGAGGAUCACCCAUGUUCUUCUCCGGGUUUCGAGAGAAGGCAGGCCUA [Armus4] (Eterna round: R97, puzzle: Exclusion 5) | – | – | – | 0.0794 | – | 0.249
AGCAAGUUAAGGUUGAUGCACAUGAGGAUCACCCAUGUUCGUCUUACAUGGAAAGUGGACGCGUUUAUGGAAAGGAG [Eternabot (L2) Solution 36] (Eterna round: R97, puzzle: Sensor, turn-off variant 1) | – | – | – | 0.0282 | – | 0.0282
UUAUUGGUUGUGAGGAUAUCGGAUAGAUAGAUAUUCGAGAAGGCACAUGAGGAUCACCCAUGUGUGAUUGGAAA [JR_BMEx4_Sub047] (Eterna round: R97, puzzle: Brourd's mod of Exclusion 4) | – | – | – | 0.276 | – | 0.0279
CAGUACUGAGGAUAUACAUGAGGAUCACCCAUGUGUACCAGCUAGGAUACUAGCAAAAGUAGAAGGCAGUACUG [Mat - Exclusion 3 - Eli Mod - D21] (Eterna round: R97, puzzle: Exclusion 3) | – | – | – | 0.0312 | – | 0.0195
AACCCUGAUGACAAAUUACAUGAGGAUCACCCAUGUGCCUCACAGGAUAUCCCAGCACGUCGCUAGGAGAAGGGUGACGCGCCA [Tienen] (Eterna round: R96, puzzle: Exclusion NG 3) | – | – | – | 0.0375 | 0.0251 | 0.03
GACCGGGCAGGAUAUACAAAACCUCGGUGUAUUUUGGACCGACAUGAGGAUCACCCAUGUAGAAGGGCCUAAGG [Eternabot (Original) Solution 4] (Eterna round: R97, puzzle: Exclusion 2) | – | – | – | 0.0342 | – | 0.0236
AAGAAGAAGUAAGGAUAUGAAGAUUUGGUGAUAACAUGAGGAUCACCCAUGUGAAAACAAUAAAAUCAGAAGGUAUAAGAAGAA [AK ExNG2-2] (Eterna round: R96, puzzle: Exclusion NG 2) | – | – | – | 0.0576 | 0.0373 | 0.058
GGGCGUUAAGGAUAUGAUUGAAGGAACAUGAGGAUCACCCAUGUUCGGUGCCUAAUGUUCUCAGAAGGUGAUAGCU [Eternabot (L1) Solution 50] (Eterna round: R97, puzzle: Exclusion 5) | – | – | – | 0.186 | – | 0.175
